# Measurements taken from US20180155451A1 (published 2018).
# B1: GpH7-A5/GpH7-B3 variant A327_12R/GpL16-k0 (antibody, human IgG1, kappa)
# heavy 1: not shown
# heavy 2: not shown
# light: DIVMTQSPLSLPVTPGEPASISCQASESLVHSNRNTYLHWYLQKPGQSPQLLIYKVSNRFSGVPDRFSGSGSGTDFTLKISRVEAEDVGVYYCSQNTHVPPTFGQGTKVEIERTVAAPSVFIFPPSDEQLKSGTASVVCLLNNFYPREAKVQWKVDNALQSGNSQESVTEQDSKDSTYSLSSTLTLSKADYEKHKVYACEVTHQGLSSPVTKSFNRGEC
# notes: position is EU numbering; also called He Ab
# B2: GpH7-A5/GpH7-B3 variant L328_12R/GpL16-k0 (antibody, human IgG1, kappa)
# heavy 1: not shown
# heavy 2: not shown
# light: B1 light
# notes: as for B1
# B3: GpH7-A5/GpH7-B3 variant L328_11K/GpL16-k0 (antibody, human IgG1, kappa)
# heavy 1: not shown
# heavy 2: not shown
# light: B1 light
# notes: as for B1
# B4: heterodimerized antibody GpH7-A5/GpH7-B3 variant A327_01G/GpL16-k0 (antibody, human IgG1, kappa)
# heavy 1: not shown
# heavy 2: not shown
# light: B1 light
# notes: He Ab: anti-glypican-3 IgG1, alteration in one H chain only; also called He Ab
# B5: heterodimerized antibody GpH7-A5/GpH7-B3 variant I332_02A/GpL16-k0 (antibody, human IgG1, kappa)
# heavy 1: not shown
# heavy 2: not shown
# light: B1 light
# notes: as for B4
# B6: heterodimerized antibody GpH7-A5/GpH7-B3 variant Y300_19Q/GpL16-k0 (antibody, human IgG1, kappa)
# heavy 1: not shown
# heavy 2: not shown
# light: B1 light
# notes: as for B4
# B7: heterodimerized antibody GpH7-A5/GpH7-B3 variant L328_19Q/GpL16-k0 (antibody, human IgG1, kappa)
# heavy 1: not shown
# heavy 2: not shown
# light: B1 light
# notes: as for B4
# B8: heterodimerized antibody GpH7-A5/GpH7-B3 variant S239_03V/GpL16-k0 (antibody, human IgG1, kappa)
# heavy 1: not shown
# heavy 2: not shown
# light: B1 light
# notes: as for B4
# B9: heterodimerized antibody GpH7-A5/GpH7-B3 variant V266_11K/GpL16-k0 (antibody, human IgG1, kappa)
# heavy 1: not shown
# heavy 2: not shown
# light: B1 light
# notes: as for B4
# B10: heterodimerized antibody GpH7-A5/GpH7-B3 variant V266_05P/GpL16-k0 (antibody, human IgG1, kappa)
# heavy 1: not shown
# heavy 2: not shown
# light: B1 light
# notes: as for B4
# B11: heterodimerized antibody GpH7-A5/GpH7-B3 variant S267_12R/GpL16-k0 (antibody, human IgG1, kappa)
# heavy 1: not shown
# heavy 2: not shown
# light: B1 light
# notes: as for B4
# B12: heterodimerized antibody GpH7-A5/GpH7-B3 variant S267_11K/GpL16-k0 (antibody, human IgG1, kappa)
# heavy 1: not shown
# heavy 2: not shown
# light: B1 light
# notes: as for B4
# B13: GpH7-A5/GpH7-B3 variant N325_01G/GpL16-k0 (antibody, human IgG1, kappa)
# heavy 1: not shown
# heavy 2: not shown
# light: B1 light
# notes: Heterodimerized IgG1; alteration in one H chain only; also called He Ab
# B14: GpH7-A5/GpH7-B3 variant A327_08L/GpL16-k0 (antibody, human IgG1, kappa)
# heavy 1: not shown
# heavy 2: not shown
# light: B1 light
# notes: as for B13
# B15: GpH7-A5/GpH7-B3 variant Y300_05P/GpL16-k0 (antibody, human IgG1, kappa)
# heavy 1: not shown
# heavy 2: not shown
# light: B1 light
# notes: as for B13
# B16: GpH7-A5/GpH7-B3 variant A327_03V/GpL16-k0 (antibody, human IgG1, kappa)
# heavy 1: not shown
# heavy 2: not shown
# light: B1 light
# notes: as for B13
# Biological target: T1, FcγRIIIa extracellular domain with C-terminal His tag (human, UniProt P08637 17-208)
# T1 construct: extracellular domain; also called FcgRIIIa; 3a; not shown: His tag at the C terminus
# Experiment: SPR (Biacore), antibody captured, FcγR as analyte; He Ab binding / GpH7-A5/GpH7-B3/GpL16-k0 binding x 100
# Description: (§1) The heterodimerized antibodies He Abs in which one of the H chains was introduced with an alteration were assayed for their binding activities to each activating FcγR and inhibitory FcγR according to the method described in Example 4. […] The activating FcγRs in FIGS. 26, 27, 28, and 29 are FcγRIa, FcγRIIa (R), FcγRIIa (H), and FcγRIIIa, respectively.
# T1 sequence (P08637 17-208): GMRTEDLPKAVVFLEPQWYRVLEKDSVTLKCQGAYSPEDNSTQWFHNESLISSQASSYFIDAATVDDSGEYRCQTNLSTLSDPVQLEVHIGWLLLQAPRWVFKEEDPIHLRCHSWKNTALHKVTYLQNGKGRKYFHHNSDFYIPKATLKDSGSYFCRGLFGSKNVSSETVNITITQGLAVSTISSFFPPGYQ
# (§2) Analysis of interaction between objective antibody and the FcγR was carried out using Biacore T100 (GE Healthcare). HBS-EP+ (GE Healthcare) was used as the running buffer, and the measurement temperature was set to 25° C. Chips produced by immobilizing the antigen peptide by the amine coupling method to a Series S Sencor Chip CM5 (GE Healthcare), or alternatively, chips produced by allowing preliminarily biotinylated antigen peptides to interact with and immobilize onto a Series S Sensor Chip SA (certified) (GE Healthcare) were used. Antibodies of interest were captured onto an antigen peptide-immobilized chip, and allowed to interact to each FcγR diluted with running buffer. To regenerate and repeatedly use the chip, the antibodies captured on the chip were washed off by reacting 10 mM glycine-HCl, pH 1.5.
row,He/Con_3a (IIIa binding),Binder
1,"19.3 relative, control = 100",B1
2,"32.7 relative, control = 100",B2
3,"33.5 relative, control = 100",B3

# Biological target: T2, FcγRIIa R (FcγRIIa, allotype R, Arg at position 131), extracellular domain with C-terminal His tag (human, UniProt P12318 34-217)
# T2 construct: extracellular domain; soluble receptor used as Biacore analyte; also called 2aR; FcgRIIa R
# T2 sequence (looked up): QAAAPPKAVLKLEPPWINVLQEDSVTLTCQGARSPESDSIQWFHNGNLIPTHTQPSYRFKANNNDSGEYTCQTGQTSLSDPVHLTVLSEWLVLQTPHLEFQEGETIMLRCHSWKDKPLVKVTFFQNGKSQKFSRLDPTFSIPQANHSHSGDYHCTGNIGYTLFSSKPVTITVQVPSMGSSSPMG
# Experiment: Biacore SPR; binding relative to GpH7-A5/GpH7-B3/GpL16-k0 (=100)
# Description: as §1, §2
row,He/Con_2aR (IIaR binding),Binder
1,98.2 % of control,B4
2,97.6 % of control,B5
3,99.7 % of control,B6
4,89.3 % of control,B7
5,99.9 % of control,B8

# Biological target: T3, FcγRIIb, extracellular domain with C-terminal His tag (human, UniProt P31994 43-217)
# T3 construct: extracellular domain; soluble receptor used as Biacore analyte; also called 2b; FcgRIIb
# T3 sequence (looked up): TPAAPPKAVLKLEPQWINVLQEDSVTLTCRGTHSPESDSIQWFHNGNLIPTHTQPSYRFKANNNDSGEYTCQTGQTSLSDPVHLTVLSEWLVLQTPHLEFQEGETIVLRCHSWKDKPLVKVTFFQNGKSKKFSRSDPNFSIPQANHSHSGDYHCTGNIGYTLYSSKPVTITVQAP
# Experiment: as above
# Description: as §1, §2
row,He/Con_2b (IIb binding),Binder
1,116 % of control,B4
2,103 % of control,B5
3,108 % of control,B6
4,1 % of control,B9
5,105 % of control,B7
6,0.4 % of control,B10
7,11.3 % of control,B11
8,12.2 % of control,B12
9,108 % of control,B8

# Biological target: T1, FcγRIIIa extracellular domain with …
# Experiment: SPR (Biacore); ratio of He/Con_3a (FcγRIIIa) to He/Con_2b (FcγRIIb)
# Description: as §1, §2
row,He_3a/2b (IIIa/IIb),Binder
1,2.15 ratio,B1
2,3.53 ratio,B2
3,4.46 ratio,B3

# Biological target: T4, FcγRIIIa extracellular domain with C-terminal His tag (human, UniProt P08637 17-208)
# T4 construct: extracellular domain; also called FcgRIIIa; 3a; not shown: His tag attached to the C terminus
# Experiment: SPR (Biacore); He/Con_3a divided by He/Con_2b (reference: binding to FcγRIIb)
# Description: as §2
# (§3) The FcγR-binding activity of each antibody was assessed primarily using as an indicator the FcγR-binding activity and dissociation constant for FcγR.
# T4 sequence (P08637 17-208): as the sequence (P08637 17-208) above
row,He_3a/2b (IIIa/IIb),Binder
1,0.28 ratio,B13
2,0.67 ratio,B14
3,0.38 ratio,B15
4,0.48 ratio,B16

# Biological target: T4, FcγRIIIa extracellular domain with …
# Experiment: SPR (Biacore), relative binding
# Description: as §2, §3
row,He/Con_3a (IIIa binding),Binder
1,28 % of GpH7-A5/GpH7-B3/GpL16-k0 (=100),B13
2,42 % of GpH7-A5/GpH7-B3/GpL16-k0 (=100),B14
3,2.8 % of GpH7-A5/GpH7-B3/GpL16-k0 (=100),B15
4,45.8 % of GpH7-A5/GpH7-B3/GpL16-k0 (=100),B16

# Biological target: T5, FcγRIIb extracellular domain with C-terminal His tag (human, UniProt P31994 43-217)
# T5 construct: extracellular domain; also called FcgRIIb; 2b; not shown: His tag attached to the C terminus
# T5 sequence (looked up): T3 sequence (looked up)
# Experiment: SPR (Biacore), relative binding
# Description: as §2, §3
row,He/Con_2b (IIb binding),Binder
1,101 % of GpH7-A5/GpH7-B3/GpL16-k0 (=100),B13
2,63.1 % of GpH7-A5/GpH7-B3/GpL16-k0 (=100),B14
3,94.7 % of GpH7-A5/GpH7-B3/GpL16-k0 (=100),B16
